This note sets out measurements from patent US20120264231A1, “ASSAY FOR ORAI CALCIUM CHANNEL REGULATORS” (IMMUNE DISEASE INSTITUTE, INC., priority 2009, published 2012).

The target of one assay is T1, ORAI1 (R91W) (Homo sapiens, UniProt Q96D31, R91W).
T1 construct: the ORAI functional fragment is ORAI1 (65-301), ORAI1 (65-87), or full length ORAI1; made in house; host or cells: S. cerevisiae NY17 (sec6-4), isolated secretory vesicles
The assay is described as follows: Cameleon D3 cpV intravesicular Ca^2+ assay, vesicles with ORAI1 (R91W). The assay is classed as biochemical. Conditions: vesicles containing ORAI1 (R91W). The source says: (§1) Confirmation that Ca^2+ release from the vesicles was due to gating of the ORAI 1 channel was sought. […] It was concluded that the in vitro assay reflects STIM 1-dependent gating of ORAI1 and Ca^2+ flux through the ORAI1 channel pore.
(§2) The yeast expression vector pBEVY-GU60 allows for simultaneous expression of two transgenes by means of the bidirectional GAL1-10 promoter. The FRET-based calcium sensors D3 cpV and D4 cpV53 were fused at the N-terminus with the S. cerevisiae α-mating factor secretion signal (Bitter, G. A., et al., Proc Natl Acad Sci USA 81, 5330-5334 (1984)), which directs proteins into the secretory pathway, and introduced into pBEVY-GU in the following way. Vector pPIC9 (Invitrogen) served as template for PCR amplification of the α-mating factor secretion signal (5′ primer: […] (SEQ ID NO: 2); 3′ primer: […] (SEQ ID NO: 3)), introducing an EcoRI site at the 5′ end, and a sequence complementary to that encoding the N-terminus of the calcium sensor at the 3′ end. DNA encoding the N-terminal portion of the calcium sensor D3 cpV, comprising CFP, was amplified by PCR (5′ primer: […] (SEQ ID NO: 4); 3′ primer: […] (SEQ ID NO: 5)), introducing an SphI site followed by a stop codon and a NotI site at the 3′ end of the resulting DNA fragment. […]

In the next assay the target is ORAI1 (E106Q) (Homo sapiens, UniProt Q96D31, E106Q). Put plainly: Cameleon D3 cpV intravesicular Ca^2+ assay, vesicles with ORAI1 (E106Q). The class given is biochemical. On the set-up: the ORAI functional fragment is ORAI1 (65-301), ORAI1 (65-87), or full length ORAI1; made in house; host or cells: S. cerevisiae NY17 (sec6-4), isolated secretory vesicles. Conditions: vesicles containing ORAI1 (E106Q).
Sequence of ORAI1 (E106Q) (Q96D31 2-301 E106Q): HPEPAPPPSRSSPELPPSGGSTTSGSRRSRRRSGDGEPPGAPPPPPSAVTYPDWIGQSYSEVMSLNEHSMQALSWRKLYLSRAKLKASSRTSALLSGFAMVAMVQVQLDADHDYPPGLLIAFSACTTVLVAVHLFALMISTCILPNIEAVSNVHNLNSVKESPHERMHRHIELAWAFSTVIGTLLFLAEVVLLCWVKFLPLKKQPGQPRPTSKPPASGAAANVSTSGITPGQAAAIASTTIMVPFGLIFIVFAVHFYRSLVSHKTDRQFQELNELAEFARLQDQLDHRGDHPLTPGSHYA
Source text: as §1, §2

T1 sequence (Q96D31 2-301 R91W): as the sequence (Q96D31 2-301 E106Q) above, with R90W, Q105E counted along it

For “STIM1^CT: cytoplasmic region of STIM1, mouse residues 233-685, His-tagged recombinant protein expressed in E coli”, the “Ca^2+ release from vesicles” value with ORAI1 (R91W) and in the assay with ORAI1 (E106Q) was “did not elicit Ca^2+ release” in each case.
